PMC7921410, “Structure of mammalian Mediator complex reveals Tail module architecture and interaction with a conserved core” (Nature Communications, 2021)

Key:
[1] = molecular target: T1, MED23 (mouse (Mus musculus; endogenous in CH12), UniProt Q80YQ2 1-1367); assay: cryo-EM structure; endogenous mouse Mediator immunopurified from CH12 nuclear extract through 3×FLAG-MED19 or 3×FLAG-MED25; eluted in 50 mM HEPES pH 7.9, 100 mM KCl, 5% glycerol, 1 mM EDTA, 0.005% NP-40; map at 4.0 Å overall, focused refinement of the MED1 and knob/hook ends (6-10 Å); conditions: both partners purified
T1 construct: MED23, Mus musculus, endogenous lower Tail subunit of Mediator; Model building started from the X-ray structure of human MED23 (PDB 6H02); source: endogenous, CH12 mouse B lymphoma nuclear extract; immunopurified as part of Mediator (FLAG M2 agarose, FLAG peptide elution)
T1 sequence (looked up): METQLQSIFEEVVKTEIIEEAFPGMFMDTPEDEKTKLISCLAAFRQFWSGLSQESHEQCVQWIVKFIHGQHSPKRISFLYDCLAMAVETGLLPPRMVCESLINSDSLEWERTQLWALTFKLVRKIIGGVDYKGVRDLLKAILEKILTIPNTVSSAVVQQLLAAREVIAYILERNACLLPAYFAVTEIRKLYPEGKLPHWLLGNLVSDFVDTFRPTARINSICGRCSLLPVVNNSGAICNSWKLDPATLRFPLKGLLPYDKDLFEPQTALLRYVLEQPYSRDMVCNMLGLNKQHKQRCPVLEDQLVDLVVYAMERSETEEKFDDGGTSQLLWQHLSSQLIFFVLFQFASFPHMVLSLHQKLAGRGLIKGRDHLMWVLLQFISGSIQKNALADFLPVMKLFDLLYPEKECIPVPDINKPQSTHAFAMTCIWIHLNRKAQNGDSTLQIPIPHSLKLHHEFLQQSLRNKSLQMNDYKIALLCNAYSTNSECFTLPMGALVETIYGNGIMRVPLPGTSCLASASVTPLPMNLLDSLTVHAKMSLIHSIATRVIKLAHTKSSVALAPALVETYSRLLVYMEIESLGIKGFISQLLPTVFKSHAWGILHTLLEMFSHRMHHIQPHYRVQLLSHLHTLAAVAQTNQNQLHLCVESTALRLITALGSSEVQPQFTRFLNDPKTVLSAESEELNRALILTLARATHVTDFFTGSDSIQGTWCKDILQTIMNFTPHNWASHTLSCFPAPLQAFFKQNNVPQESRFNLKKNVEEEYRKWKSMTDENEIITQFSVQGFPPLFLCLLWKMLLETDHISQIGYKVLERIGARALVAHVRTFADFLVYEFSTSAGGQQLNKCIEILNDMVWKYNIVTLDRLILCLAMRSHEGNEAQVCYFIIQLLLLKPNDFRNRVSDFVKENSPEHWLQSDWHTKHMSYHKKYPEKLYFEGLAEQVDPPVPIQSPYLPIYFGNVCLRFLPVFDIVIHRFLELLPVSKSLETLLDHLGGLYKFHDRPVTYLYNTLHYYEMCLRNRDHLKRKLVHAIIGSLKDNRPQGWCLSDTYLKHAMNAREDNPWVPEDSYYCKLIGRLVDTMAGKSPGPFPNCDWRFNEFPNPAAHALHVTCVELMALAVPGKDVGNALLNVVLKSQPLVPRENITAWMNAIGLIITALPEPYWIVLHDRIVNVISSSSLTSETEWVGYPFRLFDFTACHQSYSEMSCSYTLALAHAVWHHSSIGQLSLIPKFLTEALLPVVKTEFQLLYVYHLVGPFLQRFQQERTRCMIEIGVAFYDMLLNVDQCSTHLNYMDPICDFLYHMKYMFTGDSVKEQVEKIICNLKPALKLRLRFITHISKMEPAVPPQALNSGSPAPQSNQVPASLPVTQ

[2] = molecular target: T2, MED24 (mouse (Mus musculus; endogenous in CH12), UniProt Q99K74 1-987); assay: as above; conditions: both partners purified
T2 construct: MED24, Mus musculus, endogenous lower Tail subunit of Mediator; source: endogenous, CH12 mouse B lymphoma nuclear extract; immunopurified as part of Mediator (FLAG M2 agarose, FLAG peptide elution)
T2 sequence (looked up): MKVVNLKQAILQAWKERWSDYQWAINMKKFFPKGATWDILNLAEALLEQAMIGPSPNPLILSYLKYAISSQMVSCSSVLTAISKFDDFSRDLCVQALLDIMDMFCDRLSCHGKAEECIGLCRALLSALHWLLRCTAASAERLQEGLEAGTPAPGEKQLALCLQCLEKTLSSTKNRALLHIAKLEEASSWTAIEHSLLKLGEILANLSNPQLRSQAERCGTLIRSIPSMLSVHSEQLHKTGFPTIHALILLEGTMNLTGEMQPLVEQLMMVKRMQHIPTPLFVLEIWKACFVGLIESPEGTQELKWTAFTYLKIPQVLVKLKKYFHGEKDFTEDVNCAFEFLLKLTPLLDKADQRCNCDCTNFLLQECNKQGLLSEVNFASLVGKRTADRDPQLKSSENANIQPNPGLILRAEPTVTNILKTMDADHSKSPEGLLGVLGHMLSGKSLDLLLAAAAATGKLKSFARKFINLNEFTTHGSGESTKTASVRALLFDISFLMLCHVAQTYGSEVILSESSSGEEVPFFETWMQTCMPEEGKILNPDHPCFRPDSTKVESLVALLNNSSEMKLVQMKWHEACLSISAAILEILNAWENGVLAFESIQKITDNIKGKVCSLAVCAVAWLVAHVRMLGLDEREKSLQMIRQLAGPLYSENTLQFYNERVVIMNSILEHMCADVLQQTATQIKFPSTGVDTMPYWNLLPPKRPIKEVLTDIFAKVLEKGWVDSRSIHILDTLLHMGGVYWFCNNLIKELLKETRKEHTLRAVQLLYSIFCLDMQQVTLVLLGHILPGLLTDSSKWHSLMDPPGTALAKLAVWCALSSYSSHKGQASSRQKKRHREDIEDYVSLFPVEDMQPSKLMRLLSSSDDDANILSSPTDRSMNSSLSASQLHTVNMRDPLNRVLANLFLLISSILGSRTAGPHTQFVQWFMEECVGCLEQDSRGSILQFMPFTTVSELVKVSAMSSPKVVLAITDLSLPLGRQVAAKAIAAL

B1: MED15 (natural protein, mouse (Mus musculus; endogenous in CH12), UniProt Q924H2 1-789, looked up)
chain: MDVSGQETDWRSAAFRQKLVSQIEDAMRKAGVAHSKSSKDMESHVFLKAKTRDEYLSLVARLIIHFRDIHNKKSQASVSDPMNALQSLTGGPTPGAAGIGMPPRGPGQSLGGMGGLGAMGQPLPLSGQPPPGTSGMAPHGMAVVSTATPQTQLQLQQVALQQQQQQQQQQQFQQQQAALQQQQQQQQQQQQQQQFQAQQNAMQQQFQAVVQQQQLQQQQQQQHLIKLHHQSQQQQIQQQQLQRMAQLQLQQQQQQQQQQALQAQPPMQQPSMQQPQPPPSQALPQQLSQLHHPQHHQPPPQAQQSPIAQNQPPQIPPQSQSQPLVSQAQALPGPMLYAAQQQLKFVRAPMVVQQPQVQPQVQQVQPQVQPQAAVQAAQSAQMVAPGVQMIAEALAQGGMHVRARFPPTSTMSAGPSSSISLGGQPTTQVSQSSLTMLSSPSPGQQVQTPQSMPPPPQPSPQPGSQPNSNVSSGPAPSPSSFLPSPSPQPSQSPVTARTPQNFSVPSPGPLNTPVNPSSVMSPAGSSQAEEQQYLDKLKQLSKYIEPLRRMINKIDKNEDRKKDLSKMKSLLDILTDPSKRCPLKTLQKCEIALEKLKNDMAVPTPPPPPVLPTKQQDLCQPLLDAVLANIRSPVFNHSLYRTFVPAMMAIHGPPIVSPVVCSRKRRFEEDERQSIPNVLQGEVARLDPKFLVNLDPSHCSNNGTVHLICKLDDKDLPSVPPLELSVPADYPAQSPMWIDRQWQYDANPFLQSVHRCMTSRLLQLPDKHSVTALLNTWAQSIHQACLSAA
notes: MED15, Mus musculus, endogenous lower Tail subunit of Mediator; only the C-terminal portion (from residue 620) is seen in the map; source: endogenous, CH12 mouse B lymphoma nuclear extract; immunopurified as part of Mediator (FLAG M2 agarose, FLAG peptide elution)
B1: binds [1]; binds [2].

B2: MED25 (natural protein, mouse (Mus musculus; endogenous in CH12), UniProt Q8VCB2 1-745, looked up)
chain: MVPGSEGPARAGGLVADVVFVIEGTANLGPYFEELRKHYLLPAIEYFNGGPPAETDFGGDYGGTQYSLVVFNTVDCAPESYVQCHAPTSSAYEFVTWLDGIKFMGGGGESCSLIAEGLSTALQLFDDFKKMREQIGQTHRVCLLICNSPPYLLPAVESTTYSGCTTESLVQKIGERGIHFSIVSPRKLPALRLLFEKAAPPALLEPLQQPADVSQDPRHMVLVRGLVLPVGGSSTSGSLQTKQAVPLPPAPASAATLSAAPPQALPPVPPQYQVPGNLSAAQVAAQNAVEAAKSQKAGLGPRFSPINPLQQAAPGVGPPFSQAPAPPLAPVPPGAPKPPPASQPSLVSTVAPGPVLAAPAQPGAPSLAGTVTPGGVNGPSAAQLGGPALGGQQSVSNKLLAWSGVLEWQEKPKPASVDANTKLTRSLPCQVYVNHGENLKTEQWPQKLIMQLIPQQLLTTLGPLFRNSRMVQFHFTNKDLESLKGLYRIMGNGFAGCVHFPHTAPCEVRVLMLLYSSKKKIFMGLIPYDQSGFVNGIRQVITNHKQVQQQKLEQQRGMGAQQAPPVLGPILEEQARPPQNLLQLRAPQPQPQGAVGASAATGQPQPQGATQAPTGAPQGPPGAAPGPPPSGPILRPQNPGANPQLRSLLLNPAPPQTGVPPPQASLHHLQPPGAPTLLPPHQSMGQPQLGPQLLHPPPAQSWPTQLPQRAPLPGQMLLSGGPRGPVPQPGLQPSVMEDDILMDLI
notes: MED25, Mus musculus, endogenous lower Tail subunit of Mediator; only the N-terminal von Willebrand domain (aa 15-216) is seen in the map; The 3×FLAG tag stands on MED25 only in the MED25-FLAG cell line; in the MED19-FLAG line MED25 is untagged; Images from the datasets were combined for the final map; also called MED25-FLAG; source: endogenous, CH12 mouse B lymphoma nuclear extract; …
B2: binds [1]; binds [2].
